Reference: paper PMC10267580, “Structural basis of ELKS/Rab6B interaction and its role in vesicle capturing enhanced by liquid-liquid phase separation” (The Journal of Biological Chemistry, 2023)

B1: ELKS1_RBD, Rab-binding domain of ELKS1 (residues 849-922) (domain or fragment, rat, UniProt Q811U3 849-922, looked up)
chain: RKHLEEVLEMKQEALLAAISEKDANIALLELSSSKKKTQEEVAALKREKDRLVQQLKQQTQNRMKLMADNYEDD
notes: As used in analytical gel filtration and ITC; source: E. coli BL21(DE3), purified (Ni2+-NTA, size-exclusion chromatography)
B2: ELKS1 C-terminal coiled-coil region (residues 761-927) (domain or fragment, rat, UniProt Q811U3 761-927, looked up)
chain: QVKDQNKKVANLKHKEQVEKKKSAQMLEEARRREDSLSDSSQQLQVEELLMAMEKVKQELESMKAKLSSTQQSLAEKETHLTNLRAERRKHLEEVLEMKQEALLAAISEKDANIALLELSSSKKKTQEEVAALKREKDRLVQQLKQQTQNRMKLMADNYEDDHFRSS
notes: ELKS1 (Rab6IP2, CAST, ERC), rat, GenBank AY174115.1, residues 761-927; also called C-terminal fragment of ELKS1; source: E. coli BL21(DE3), purified (Ni2+-NTA, size-exclusion chromatography)

Legend:
[1] = target: T1, Rab6B^Q72L, GTPase domain (residues 8-176), constitutively active mutant (mouse, UniProt P61294 8-176, Q72L); experiment: ITC; MicroCal PEAQ-ITC, 25 °C, 50 mM Tris pH 7.5, 100 mM NaCl, 2 mM MgCl2; typically one protein (400 μM) in the syringe into its binding protein (40 μM) in the cell; details: both partners purified
T1 construct: Rab6B, mouse, GenBank NM_173781.4, GTPase domain residues 8-176, with Q72L; Used in analytical gel filtration and ITC; The methods tell of tag cleavage (HRV 3C) only for crystallization, so the Trx-His6 tag was probably still on; also called continuously active mutant Rab6B^Q72L; active form of Rab6B; source: E. coli BL21(DE3), purified (Ni2+-NTA, size-exclusion chromatography)
T1 sequence (P61294 8-176 Q72L): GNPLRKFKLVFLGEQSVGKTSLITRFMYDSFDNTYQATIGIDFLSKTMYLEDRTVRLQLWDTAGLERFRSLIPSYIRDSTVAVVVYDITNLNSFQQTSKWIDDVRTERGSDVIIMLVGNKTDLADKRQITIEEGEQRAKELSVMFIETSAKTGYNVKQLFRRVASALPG

[2] = target: T1, Rab6B^Q72L, GTPase domain (residues …); experiment: SEC; analytical gel filtration, Superdex 200 Increase 10/300 GL, 50 mM Tris pH 7.5, 100 mM NaCl, 2 mM MgCl2, 1 mM DTT; details: both partners purified

| Binder | Kd [1] | binding result [2] |
| --- | --- | --- |
| B1 | ~8 µM |  |
| B2 |  | binds |
